In patent EP4628095A1 (Xiamen University, dated 2025):

Key:
[1] = target: T1, P2-4G-BGTSTIP; assay: SPR (Biacore 8K), HEV-p239 coupled to CM5 chip (Fig. 12)
T1 construct: also called PA-4G-BGTSTIP; VHH-BGTSTIP

[2] = target: P2-2C-RBD (insect cell expression system); assay: SPR (Biacore 8K), HEV-p239 coupled to CM5 chip (Fig. 10A)
[3] = target: P1-1G-RBD (insect cell expression system); assay: as above

Measured: binding result

B1: HEV-p239 protein (other)
chain: IALTLFNLADTLLGGLPTELISSAGGQLFYSRPVVSANGEPTVKLYTSVENAQQDKGIAIPHDIDLGESRVVIQDYDNQHEQDRPTPSPAPSRPFSVLRANDVLWLSLTAAEYDQSTYGSSTGPVYVSDSVTLVNVATGAQAVARSLDWTKVTLDGRPLSTIQQYSKTFFVLPLRGKLSFWEAGTTKAGYPYNYNTTASDQLLVENAAGHRVAISTYTTSLGAGPVSISAVAVLAPHSV
notes: also called HEV-p239 particles; HEV particles
binds: [1] | [2] | [3]
